Assay results published in PMC9289529, “Varicella‐Zoster virus ORF9 is an antagonist of the DNA sensor cGAS”.

What was measured:
[1] = target: cGAS (pull-down preparation) (human, UniProt Q8N884 1-522); assay: pull-down; Binding buffers for pull-down, EMSA and phase separation not in the material; phase separation tested at varied NaCl/KCl up to 300 mM or more; settings: protein: recombinant; tags: GST cleaved by PreScission; label: biotin; blunt
ORF9 (FLAG-ORF9) = target: T1, ORF9 (FLAG-ORF9) (Varicella-zoster virus, UniProt Q4JQW6 1-302); assay: pull-down; settings: protein: recombinant; tags: N-terminal FLAG (GST cleaved by PreScission); label: biotin; blunt
T1 sequence: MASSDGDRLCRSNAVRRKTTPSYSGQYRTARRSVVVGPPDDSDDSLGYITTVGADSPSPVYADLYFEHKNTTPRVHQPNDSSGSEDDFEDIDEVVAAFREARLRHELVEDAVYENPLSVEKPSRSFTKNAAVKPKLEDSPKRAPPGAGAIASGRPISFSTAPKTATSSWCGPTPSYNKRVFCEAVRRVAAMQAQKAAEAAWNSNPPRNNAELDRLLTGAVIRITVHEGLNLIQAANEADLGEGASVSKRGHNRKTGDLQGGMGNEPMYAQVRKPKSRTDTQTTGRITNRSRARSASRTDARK

[2] = target: hcGAS;ORF9 (phase separation preparation) (human;Varicella-zoster virus, UniProt Q8N884;Q4JQW6 1-522;1-302, |); assay: phase separation microscopy; 3-fold molar excess ORF9; larger droplets, also formed at 300 mM NaCl/KCl; Binding buffers for pull-down, EMSA and phase separation not in the material; phase separation tested at varied NaCl/KCl up to 300 mM or more; settings: protein: recombinant;recombinant; tags: 6xHis-SUMO2 construct (pET);6xHis-SUMO2 removed by SENP2; blunt
[3] = target: T2, ORF9 (phase separation preparation) (Varicella-zoster virus, UniProt Q4JQW6 1-302); assay: phase separation microscopy; no cGAS; smaller droplets than cGAS-DNA; Binding buffers for pull-down, EMSA and phase separation not in the material; phase separation tested at varied NaCl/KCl up to 300 mM or more; settings: protein: recombinant; tags: 6xHis-SUMO2 removed by SENP2; blunt
T2 sequence: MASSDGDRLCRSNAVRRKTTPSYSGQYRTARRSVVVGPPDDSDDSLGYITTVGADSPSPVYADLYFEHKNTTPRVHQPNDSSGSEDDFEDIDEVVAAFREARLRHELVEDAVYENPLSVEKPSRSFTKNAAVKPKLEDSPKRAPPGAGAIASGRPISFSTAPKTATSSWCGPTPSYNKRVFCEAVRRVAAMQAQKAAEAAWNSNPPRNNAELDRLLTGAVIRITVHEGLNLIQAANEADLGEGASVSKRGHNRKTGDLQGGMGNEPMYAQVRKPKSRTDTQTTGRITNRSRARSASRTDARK

hcGAS [4] = target: T3, hcGAS (human, UniProt Q8N884 1-522); assay: phase separation microscopy; droplets sensitive to salt >250 mM; none at 300 mM NaCl/KCl; Binding buffers for pull-down, EMSA and phase separation not in the material; phase separation tested at varied NaCl/KCl up to 300 mM or more; settings: protein: recombinant; tags: 6xHis-SUMO2 construct (pET); blunt
[5] = target: hcGAS;ORF9 (EMSA preparation) (human;Varicella-zoster virus, UniProt Q8N884;Q4JQW6 1-522;1-302, |); assay: EMSA (agarose); increasing ORF9 enlarges cGAS-DNA complexes; Binding buffers for pull-down, EMSA and phase separation not in the material; phase separation tested at varied NaCl/KCl up to 300 mM or more; settings: protein: recombinant;recombinant; tags: 6xHis-SUMO2 construct (pET);N-terminal FLAG (pET28a, Ni-NTA purified); blunt
hcGAS [6] = target: T3, hcGAS; assay: EMSA (agarose); high-molecular-weight complexes; Binding buffers for pull-down, EMSA and phase separation not in the material; phase separation tested at varied NaCl/KCl up to 300 mM or more; settings: protein: recombinant; tags: 6xHis-SUMO2 construct (pET); blunt
ORF9 (EMSA preparation) = target: T4, ORF9 (EMSA preparation) (Varicella-zoster virus, UniProt Q4JQW6 1-302); assay: EMSA (agarose); Binding buffers for pull-down, EMSA and phase separation not in the material; phase separation tested at varied NaCl/KCl up to 300 mM or more; settings: protein: recombinant; tags: N-terminal FLAG (pET28a, Ni-NTA purified); blunt
T4 sequence: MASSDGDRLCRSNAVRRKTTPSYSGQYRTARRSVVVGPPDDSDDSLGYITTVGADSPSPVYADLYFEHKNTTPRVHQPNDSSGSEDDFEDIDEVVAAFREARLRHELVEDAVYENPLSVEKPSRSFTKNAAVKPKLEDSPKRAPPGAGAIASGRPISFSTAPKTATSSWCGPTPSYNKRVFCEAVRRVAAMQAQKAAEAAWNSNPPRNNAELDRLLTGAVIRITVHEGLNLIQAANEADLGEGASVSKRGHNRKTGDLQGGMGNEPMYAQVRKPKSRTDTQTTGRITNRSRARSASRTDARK

T3 sequence (Q8N884 whole entry): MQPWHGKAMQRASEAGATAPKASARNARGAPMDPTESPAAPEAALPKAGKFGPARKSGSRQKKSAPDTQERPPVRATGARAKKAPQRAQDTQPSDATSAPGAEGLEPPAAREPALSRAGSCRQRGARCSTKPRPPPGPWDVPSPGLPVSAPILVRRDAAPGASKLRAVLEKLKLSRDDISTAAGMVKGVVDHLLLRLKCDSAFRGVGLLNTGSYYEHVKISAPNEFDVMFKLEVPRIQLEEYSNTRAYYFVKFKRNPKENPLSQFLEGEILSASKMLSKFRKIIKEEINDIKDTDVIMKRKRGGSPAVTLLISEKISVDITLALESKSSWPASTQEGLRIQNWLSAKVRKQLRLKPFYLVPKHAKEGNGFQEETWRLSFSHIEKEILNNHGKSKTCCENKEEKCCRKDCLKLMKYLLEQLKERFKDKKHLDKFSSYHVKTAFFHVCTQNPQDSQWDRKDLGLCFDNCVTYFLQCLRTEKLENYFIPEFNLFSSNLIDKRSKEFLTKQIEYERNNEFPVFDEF
hcGAS;ORF9 (EMSA preparation), sequence (Q8N884 whole entry, one chain of several): as the sequence (Q8N884 whole entry) above
cGAS (pull-down preparation), sequence (Q8N884 whole entry): as above
hcGAS;ORF9 (phase separation preparation), sequence (Q8N884 whole entry, one chain of several): as the sequence (Q8N884 whole entry) above

B1: VACV-70mer-Biotin (dsDNA)
DNA 1: CCATCAGAAAGAGGTTTAATATTTTTGTGAGACCATCGAAGAGAGAAAGAGATAAAACTTTTTTACGACT
DNA 2: AGTCGTAAAAAAGTTTTATCTCTTTCTCTCTTCGATGGTCTCACAAAAATATTAAACCTCTTTCTGATGG
modifications: 3' TEG-biotin on forward strand
B1: binds [1]; binds (ORF9 (FLAG-ORF9)).

B2: 100 bp ISD (dsDNA)
DNA 1: ACATCTAGTACATGTCTAGTCAGTATCTAGTGATTATCTAGACATACATCTAGTACATGTCTAGTCAGTATCTAGTGATTATCTAGACATGGACTCATCC
DNA 2: GGATGAGTCCATGTCTAGATAATCACTAGATACTGACTAGACATGTACTAGATGTATGTCTAGATAATCACTAGATACTGACTAGACATGTACTAGATGT
B2: binds [2]; binds [3]; binds (hcGAS [4]).

B3: VACV70mer dsDNA (dsDNA)
DNA 1: CCATCAGAAAGAGGTTTAATATTTTTGTGAGACCATCGAAGAGAGAAAGAGATAAAACTTTTTTACGACT
DNA 2: AGTCGTAAAAAAGTTTTATCTCTTTCTCTCTTCGATGGTCTCACAAAAATATTAAACCTCTTTCTGATGG
B3: binds [5]; binds (hcGAS [6]); binds (ORF9 (EMSA preparation)).
